Measurements published in patent publication US12338291B2, “Humanized antibody molecules to CD138 and uses thereof” (VISTERRA, INC., priority 2019, dated 2025).
Residue numbers refer to the chain shown, from its start.

B1: mAb 2810: parental mouse-human chimeric anti-CD138 antibody; VH SEQ ID NO: 296, VL SEQ ID NO: 292 (antibody, V domains shown)
VH: QVQLHQPGTSLVKPGASVKLSCKASGYSFSSYYMHWVKQRPGQGLEWIGTIHPSDSTTNYNQKFKGKATLTVDKSSRTAYMQLNSLTFEDSAVYYCANFVYWGQGTSVTVSS
VL: DIVITQDELSNPVTSGDSVSISCRSSKSLLYKDGKTYLNWFLQRPGQSPQLLIYVVSTRASGVSDRFSGSGSGTDFTLEISRVKAEDVGVYYCQQLVEYPYTFGGGTKLEIK
B2: mAb 3821: humanized anti-CD138 antibody; VH SEQ ID NO: 466, VL SEQ ID NO: 476 (antibody, V domains shown)
VH: QVQLVQSGAEVKKPGSSVKVSCKASGYSFSSYYMHWVRQAPGQGLEWMGTIHPSDSTANYNQKFKGRVTITVDKSTSTAYMELSSLRSEDTAVYYCANFVYWGQGTTVTVSS
VL: DIVMTQTPLSLSVTPGQPASISCKSSKSLLYKDGKTYLNWFLQKPGQSPQLLIYVVSTRASGVPDRFSGSGSGTDFTLKISRVEAEDVGVYYCQQLVQYPYTFGQGTKLEIK
B3: mAb 3820: humanized anti-CD138 antibody; VH SEQ ID NO: 466, VL SEQ ID NO: 475 (antibody, V domains shown)
VH: B2 VH
VL: B2 VL with Q98E
B4: mAb 4521: humanized anti-CD138 antibody; VH SEQ ID NO: 473, VL SEQ ID NO: 476 (antibody, V domains shown)
VH: B2 VH with S16A, S28N, S30A, A58T, I70M, K74T
VL: B2 VL
B5: mAb 4321: humanized anti-CD138 antibody; VH SEQ ID NO: 471, VL SEQ ID NO: 476 (antibody, V domains shown)
VH: B2 VH with S16A, A58T, K65Q, I70M, K74T, S77R
VL: B2 VL
B6: mAb 4326: humanized anti-CD138 antibody; VH SEQ ID NO: 471, VL SEQ ID NO: 481 (antibody, V domains shown)
VH: B2 VH with S16A, A58T, K65Q, I70M, K74T, S77R
VL: DIVMTQSPDSLAVSLGERATINCKSSQSLLYKDGKTYLNWFQQKPGQPPKLLIYVVSTRASGVPDRFSGSGSGTDFTLTISSLQAEDVAVYYCQQLVEYPYTFGQGTKLEIK

Experiments:
MM1.S (Luc) cells [1] = test system: MM1.S (Luc) cells
Experimental: The mice (N=9 per group) were distributed to ensure that the mean whole-body tumor burden for all groups was within 10% of the overall mean whole-body tumor burden for the study population. Treatment was initiated on day 14 post tumor implant. […] Treatment in all groups was discontinued at Day 53; surviving animals were monitored for an additional 3 weeks out to Day 73 (discontinuation phase of the study).
Whole body tumor burden was monitored by bioluminescence. […] BLI was performed using an IVIS Lumina S5 (PerkinElmer, MA). Animals were imaged five at a time under 1-2% isoflurane gas anesthesia. […] Large binning of the CCD chip was used, and the exposure time was adjusted (5 seconds to 2 minutes) to obtain at least several hundred counts per image and to avoid saturation of the CCD chip Animals were imaged once weekly at staging and on days 14, 21, 29, 36, 43, 53, and 73 (end of study) for all animals remaining on study. Images were analyzed using Living Image 4.7.1 (PerkinElmer, MA) software. Whole body fixed-volume regions of interest (ROIs) were placed on prone and supine images for each individual animal and labeled based on animal identification. Total flux (photons/sec) was calculated and exported for all ROIs to facilitate analyses between groups. The prone and supine ROIs were summed together to estimate whole body tumor burden. Subject ROIs were also placed over each mouse, and region-specific ROIs were placed over spine and hindlimbs for each animal. These ROIs were then quantified independent of the whole-body ROIs in order to calculate signal from only hind limbs or spine.
Primary and secondary efficacy endpoints were generated using in vivo whole body BLI and included tumor burden assessment as described herein. Endpoints included whole body BLI ratio T/C (where T=treatment group and C=vehicle control) measured on each imaging day and reported on day 36 and tumor growth delay as measured as time to tumor burden as pre-defined as a BLI signal of 1.0×10^9 p/s. Additional efficacy endpoints included tumor regression, tumor free survival (TFS), and median life span normalized to vehicle control (% increased life span); this latter endpoint was calculated based on the first day of treatment and not the day of implant. Overall survival was calculated based on animals remaining on study.
Additional measurements included body weights (3× weekly), daily clinical observations and necropsy following euthanasia. Pre-defined euthanasia criteria were related to disease progression and included >20% loss in body weight or disease-related morbidity such as hind limb paralysis, paresthesia, or other signs of severe CNS or musculoskeletal impairment.

[2] = Antibody production titers in Chinese hamster ovary cells; conditions: CHO transient transfection, after Protein A purification
Excerpt: The yields represent antibody amounts following purification from cell culture media by Protein A affinity chromatography, carried out under identical transfection conditions and culture scale. Differential pre-purification titers based on quantification using Protein-A biosensors (bio-layer interferometry) of antibody in culture media was also noted likewise indicating differential expression levels (antibody titers).

MM1.S (Luc) cells [3] = assay: MM.1S Luc xenograft multiple myeloma model in C.B-17 SCID mice, dose escalation (Example 7); type: in vivo
[4] = Differential scanning fluorescence (DSF) thermal stability; type: physicochemical; conditions: PBS pH 7.4, 25-95 °C; for TM1: first thermal transition; for TM2: second thermal transition
Excerpt: Thermal stability represents an important property of antibodies and is used as a predictive surrogate of pharmaceutical drug stability in humans based on a relative stability profile as characterized by differential thermal melting profiles. Several methods exist for evaluation of product stability based on thermal melting. These include, for example, circular dichroism (CD), differential scanning calorimetry (DSC), and differential scanning fluorescence (DSF), among others. In this example, the thermal stabilities of select humanized anti-CD138 antibodies were evaluated by DSF. DSF was used to monitor the conformational stability of a protein as it was exposed to increasing thermal stress. The dye, SYPRO Orange®, fluoresces in a hydrophobic environment, such as hydrophobic core residues that are exposed during thermally triggered protein unfolding, or denaturation. In brief, SYPRO® Orange Dye (Sigma Chemical) was diluted 1:500 in phosphate buffered saline (PBS), pH 7.4, without addition of any detergents. Antibodies were likewise diluted in PBS to a target concentration of 0.5 mg/mL. 15 μl of diluted antibody and fluorescent dye were added 1:1 (v/v) into a 96 well microtiter plate and thoroughly mixed by repeat pipetting. Thermal scans were carried out using a real-time quantitative PCR (qPCR) thermal cycler with fluorescence detection capabilities. Scans were initiated at 25° C. with incremental increase in well temperature of 1° C. ramp/minute from 25° C. to 95° C. The mid-point (Tm) between native state and the first unfolding event was reported as the transition temperature or melt temperature (TM). TMs were then calculated based on transformation of the data using the first derivative of the fluorescence signal versus time. (dfluoresence/dtime) (FIG. 7).

CD138+ MM1.S cells [5] = assay: Luciferase-based ADCC reporter assay against MM1.S; type: cell-based, human; conditions: 3-fold dilutions from 10 μg/mL, E:T 10:1, 16 h, FIG. 4
Experimental: (§1) In another experiment, the ADCC activity of the humanized variants of anti-CD138 antibody 2810 was assessed. Briefly, the humanized variant antibodies were produced by transient transfection of HEK 293 cells metabolically altered for purposes of reduced Fc fucosylation. The antibodies were then evaluated for antibody dependent cellular cytotoxicity (ADCC) activity against CD138^+ human lymphoblastic myeloma U266 cells in a luciferase based ADCC reporter assay using, as effector cells, engineered Jurkat cells stably transfected with the human FcγRIIIa receptor. U266 cells were incubated with mAbs that were 3-fold serially diluted from a starting concentration of 3 μg/mL and added to effector cells and CD138+U266 multiple myeloma target cells at a cell ratio of effector:target of 10:1. After 16-hour incubation at 37° C., luciferase activity was assessed as a measure of ADCC activity and reported as relative luminescence units (RLU). ADCC data were plotted using nonlinear regression analysis and a 4-parameter curve fit.
(§2) Second, humanized anti-CD138 antibody variants 3821, 4321, 4320, 4521, 4326, and 3820 were assessed for ADCC activity against U266, MM1.S, LP-1, and RPMI 8226 CD138^+ multiple myeloma cell lines using a luciferase based ADCC reporter assay, as described in Example 15. CD138^+ target cells were incubated with anti-CD138 antibodies that were serially diluted 3-fold starting at a concentration of 10 μg/mL, and subsequently added to FcγRIIIa effector cells at a cell ratio of effector:target cell (E:T of 10:1). After a 16 hour incubation at 37° C., cellular luciferase levels were quantified as a measure of ADCC activity and reported as relative luminescence units (RLU).

CD138+ RPMI 8226 cells [6] = assay: Antibody binding to RPMI 8226 cells by flow cytometry; design: species or system human; conditions: FIG. 3
Experimental: (§3) In one experiment, the humanized variants of monoclonal antibody 2810 were assessed for their capacity to bind to CD138 on the surface of cells. Briefly, the humanized variants of antibody 2810 were produced in HEK 293 cells following transient transfection. The antibodies were then serially diluted three-fold. Antibody binding to membrane CD138 was evaluated using the CD138+ human lymphoblastic myeloma cell line U266 and quantified by flow cytometry. Antibody cell binding was reported as geometric mean fluorescence intensity (MFI). Binding data were plotted using nonlinear regression analysis and a 4-parameter curve fit.
(§4) First, humanized anti-CD138 antibody variants 3821, 4321, 4320, 4521, 4326, and 3820 were evaluated for binding to three different CD138+ multiple myeloma related cell lines: MM1.S, LP-1, and RPMI 8226. Antibody binding was measured by flow cytometry as described in Example 15.

CD138+ LP-1 cells [7] = assay: Luciferase-based ADCC reporter assay against LP-1; type: cell-based, human; conditions: 3-fold dilutions from 10 μg/mL, E:T 10:1, 16 h, FIG. 4
Experimental: as §1, §2

[8] = test system: CD138+ human lymphoblastic myeloma U266 cells; assay: Luciferase-based ADCC reporter bioassay (Jurkat FcγRIIIa effector cells) against U266; type: cell-based; conditions: 3-fold dilutions from 10 μg/mL, E:T 10:1, 16 h, FIG. 4
Experimental: as §1, §2
Briefly, the two antibodies were evaluated for ADCC activity against CD138^+ human lymphoblastic myeloma U266 cells in a luciferase based ADCC reporter assay using, as effector cells, engineered Jurkat cells stably transfected with the human FcγRIIIa receptor as described in Example 1. This comparison is summarized in FIG. 9B with data normalized as fold-induction of ADCC activity relative to the minus antibody control.

CD138+ RPMI 8226 cells [9] = assay: Luciferase-based ADCC reporter assay against RPMI 8226; type: cell-based, human; conditions: 3-fold dilutions from 10 μg/mL, E:T 10:1, 16 h, FIG. 4
Experimental: as §1, §2

CD138+ MM1.S cells [10] = assay: Antibody binding to MM1.S cells by flow cytometry; design: species or system human; conditions: FIG. 3
Experimental: as §3, §4

CD138+ LP-1 cells [11] = assay: Antibody binding to LP-1 cells by flow cytometry; design: species or system human; conditions: FIG. 3
Experimental: as §3, §4

Row | Molecule | Change in body weight (MM1.S (Luc) cells [1]; FIG. 21) | Loss of weight of euthanized animal (MM1.S (Luc) cells [1]; bortezomib single agent, day 23) [%] | Treatment related death (MM1.S (Luc) cells [1]; bortezomib single treatment group, initially 2 mg/kg, early euthanasia day 23) [%] | Survival (animals remaining on study to end of study) (MM1.S (Luc) cells [1]; day 73, treatment discontinued day 53) | Incidence of complete or partial regression (MM1.S (Luc) cells [1]; end of dosing phase) | Tumor growth delay (time to BLI 1.0×10^9 p/s) (MM1.S (Luc) cells [1]; mAb 4320 4 mg/kg, bortezomib 1 mg/kg i.p. twice weekly) [days] | Increase in life span relative to vehicle control (MM1.S (Luc) cells [1]; mAb 4320 4 mg/kg, bortezomib 1 mg/kg i.p. twice weekly, day 14-53) [%] | Tolerability / toxicity (MM1.S (Luc) cells [1]; mouse, in vivo) | Expression [2] [mg/L] | Median % T/C (whole body BLI) (MM1.S (Luc) cells [3]; day 35, vs vehicle control) [%] | Tumor growth delay (time to median BLI of 1.0×10^9 p/s) relative to vehicle control (MM1.S (Luc) cells [3]; i.p. twice weekly, mAb 4320 4, 8, 16 mg/kg, mAb 2810 4 mg/kg) [days] | TM1 [4] [°C] | ADCC activity (RLU) (CD138+ MM1.S cells [5]) | Antibody binding by flow cytometry (CD138+ RPMI 8226 cells [6]) | ADCC activity (RLU) (CD138+ LP-1 cells [7]) | TM2 [4] [°C] | ADCC activity (RLU) [8] | ADCC activity (RLU) (CD138+ RPMI 8226 cells [9]) | Antibody binding by flow cytometry (CD138+ MM1.S cells [10]) | Antibody binding by flow cytometry (CD138+ LP-1 cells [11])
1 | CC(C)C[C@H](NC(=O)[C@H](Cc1ccccc1)NC(=O)c1cnccn1)B(O)O [bortezomib, [(1R)-3-Methyl-1-[[(2S)-1-oxo-3-phenyl-2-[(pyrazinylcarbonyl)amino]propyl]amino]butyl]boronic Acid, reference compound] | Loss of body weight | −24 | 11 | none of the animals survived | None | 10.6 | 40 | treatment related toxicity was observed | – | – | – | – | – | – | – | – | – | – | – | –
2 | B1 | – | – | – | – | – | – | – | – | 30.2 | 13.1 | 6.6 | 61.9 | – | – | – | – | – | – | – | –
3 | B2 | – | – | – | – | – | – | – | – | – | – | – | 69.1 | induced ADCC activity | dose-dependent binding | induced ADCC activity | 77.7 | induced ADCC activity | induced ADCC activity | dose-dependent binding | dose-dependent binding
4 | B3 | – | – | – | – | – | – | – | – | – | – | – | – | induced ADCC activity | dose-dependent binding | induced ADCC activity | – | induced ADCC activity | induced ADCC activity | dose-dependent binding | dose-dependent binding
5 | B4 | – | – | – | – | – | – | – | – | – | – | – | – | induced ADCC activity | dose-dependent binding | induced ADCC activity | – | induced ADCC activity | induced ADCC activity | dose-dependent binding | dose-dependent binding
6 | B5 | – | – | – | – | – | – | – | – | – | – | – | 69.3 | induced ADCC activity | dose-dependent binding | induced ADCC activity | 76.9 | induced ADCC activity | induced ADCC activity | dose-dependent binding | dose-dependent binding
7 | B6 | – | – | – | – | – | – | – | – | – | – | – | – | induced ADCC activity | dose-dependent binding | induced ADCC activity | – | induced ADCC activity | induced ADCC activity | dose-dependent binding | dose-dependent binding
